From publication PMC4004541, “PEG-Like Nanoprobes: Multimodal, Pharmacokinetically and Optically Tunable Nanomaterials” (PLoS ONE, 2014)

Key:
[1] = design: method as in manufacturer's package insert; details: humans; ref manufacturer's package insert; cited from earlier work
[2] = Probe size (volume) by FPLC calibrated with globular protein standards; assay type: physicochemical
Excerpt: (§1) FPLC chromatograms are shown for PN’s bearing the IR-783 fluorochrome with PEG’s ranging from 2 to 40 kDa ( Figure 2A ). FPLC was calibrated with globular protein standards, and globular protein equivalent molecular volumes (in kDa) were obtained ( Table 1 , column 5). Next, these globular protein equivalent molecular volumes were converted to PN diameters in nm using the relationship: [drawing 1] where M is the molecular weight of a globular protein expressed in daltons. PN diameters ranged from 3.0 to 11.7 nm, which means PN’s can be smaller or larger than albumin (MW = 67 kDa; diameter = 5.4 nm, by the formula above). Thus Table 1 column 5 gives the PN volumes obtained from FPLC expressed in two ways: (i) as the molecular weight in kDa of globular proteins with equivalent volumes, permitting size comparison of PN’s to proteins, and, (ii) as spherical diameters (“Dia.”) in nm, permitting size comparisons of a PN to relative to other nanomaterials. We confirmed the sizes obtained with FPLC by measuring the size of PN(783)11.7 by dynamic light scattering (11.7 nm).
The mass spec of low molecular weight (MW) materials were obtained by MS-ESI Micromass (Waters) and high MW molecules were determined through MALDI-TOF analyses at the Tufts University Core Facility. RP-HPLC (Varian ProStar detector and delivery modules) employed an eluant A (0.1% TFA/water) and eluant B (0.1% TFA and 9.9% water in acetonitrile). Probe size (volume) was determined by FPLC using an ÄKTA Purifier 10 and SuperdexTM 200 10/300GL column (GE Healthcare) with a running buffer of 0.05 M sodium phosphate, 0.1 M NaCl (0.1% Tween, pH 7.2) and flow rate of 0.8 ml/min. Standards (GE Healthcare) were Ferritin, Ribonuclease A, Carbonic Anhydrase, and Conalbumin and Blue Dextran 2000. To obtain probe volumes, Mr (apparent molecular weight based on size exclusion retention) was plotted versus Kav. [drawing 7] , Vt = total volume, Ve = elution volume, Vo = void volume.
PN and peptide characterization: The mass spec of low molecular weights (MW) were obtained by MS-ESI Micromass (Waters) and high MW molecules were determined through MALDI-TOF analyses at the Tufts University Core Facility. RP-HPLC (Varian ProStar detector and delivery modules) employed an eluant A (0.1% TFA /water) and eluant B (0.1% TFA and 9.9% water in acetonitrile). […] Standards (GE Healthcare) were Ferritin, Ribonuclease A, Carbonic Anhydrase, and Conalbumin and Blue Dextran 2000. To obtain probe volumes, Mr (apparent molecular weight based on size exclusion retention) was plotted versus Kav. [picture] , Vt = total volume, Ve = elution volume, Vo = void volume.

[3] = Size by dynamic light scattering; assay type: physicochemical; details: Nano-ZS Zetasizer, z-average
Excerpt: as §1
Size by dynamic light scattering: Size was obtained on a Nano-ZS Zetasizer (Malvern, Medford, MA) and is expressed as the z-average.

[4] = Quantum yield of fluorochrome-bearing peptides and PN's; assay type: physicochemical; details: means±1 S.D.
Excerpt: (The p values showing significances are in Figure S2 in File S1). […] PEG attachment increased quantum yields in all cases, but as discussed below the magnitude of PEG generated improvement varied with the fluorochrome chosen. A mechanism for the PEG improvement of quantum yield is fluorochrome shielding, or the blocking of fluorochrome-fluorochrome interactions that result in quenching.
However, the magnitude of these benefits varied with the fluorochrome selected. […] Previous studies indicated PEGylated, fluorochrome-bearing peptides have absorption spectra in PBS similar to their unstacked absorption spectra in methanol. […] It appears that longer wavelength fluorochromes have stronger fluorochrome/fluorochrome stacking interactions, which result in more quenching, which is blocked by PEG and which gives rise to larger increases in quantum yield.

[5] = test system: HT-29 cells; test: Non-specific binding (NSB) to HT-29 cells by FACS; assay type: cell-based, human; details: 100 μL of nanoprobes (2 μM) added to 100 μl 2% FBS/DPBS, 30 min at 37 °C, means±1 S.D.
Excerpt: We next examined the non-specific binding (NSB) of PN’s to HT-29 cells based on the assumption that NSB minimization will correlate with a desirable minimization of post-IV injection retention. As noted above, after diagnostic drugs generate their added information, retention can only increase the risks of delayed toxicity. The attachment of PEG decreased the non-specific binding (NSB) to HT-29 cells, scored as the percent of cells above the cutoff for unstained cells seen with FACS ( Table 1 , column 7).
PN and peptide binding to cells (effect of PEGylation on NSB): HT-29, a human colon carcinoma cell line, was from the American Tissue Culture Collection and maintained according to their instructions. Cells were seeded on 24-well plates at 5X10^5 cells/well in culture medium (RPMI 1640 with 10% FBS) the day before the assay. The day of assay, medium was removed, wells rinsed twice with DPBS (+Ca, +Mg), and 100 μl of 2% FBS / DPBS (+Ca, +Mg) added. 100 μL of Nanoprobes (2 μM) in DPBS (+Ca, +Mg) was added to cells and incubated for 30min at 37 °C. (Probe concentrations were determined spectrophotometrically (783 nm, extinction coefficient of 314 471 cm^-1 M^-1 for IR-783; 497 nm, extinction coefficient of 68 000 cm^-1 M^-1 for Fluorescein; 545 nm, extinction coefficient of 150 000 cm^-1 M^-1 for Cy3). Cells were detached by Trypsin/EDTA and assayed for fluorescence by FACS (BD 7 laser LSR2 for nanoprobes with IR-783; BD 3 laser LSR2 for nanoprobes with Fluorescein or Cy3).
Figure S4: Effect of PEGylation on non-specific binding to cells by single channel FACS. […] Arrows indicates the cutoff for unstained cells.

Molecule: CC1(C)C(/C=C/C=C/C=C/C=C2\N(CCCCS(=O)(=O)O)c3ccc4ccccc4c3C2(C)C)=[N+](CCCCS(=O)(=O)[O-])c2ccc3ccccc3c21 [ICG, indocyanine green]
- Blood half-life [1]: 2.5 to 3 min

Molecule: (DOTA)Lys(PEG40 kDa)-Cys(IR-783) [PN(783)11.7, PEG-like Nanoprobe: 40 kDa PEG, IR-783 fluorochrome, DOTA peptide]
- Volume FPLC, globular protein equivalent molecular volume ([2]; FPLC, Superdex 200 10/300GL, 0.05 M sodium phosphate, 0.1 M NaCl (0.1% Tween, pH 7.2), 0.8 ml/min, calibrated with globular protein standards): 690 kDa
- Volume FPLC Dia. (diameter) ([2]; globular protein equivalent volume from FPLC converted to spherical diameter by formula (ref 15)): 11.7 nm
- Size by dynamic light scattering [3]: 11.7 nm
- Quant. Yield [4]: 0.16±0.02
- Cell NSB: percent of HT-29 cells above the cutoff for unstained cells [5]: 17±1%
